Data on four substances can be found in PMC12417186.

The target in experiment [1] is C3b (commercial), Complement Technology (human) (UniProt P01024). Put plainly: SPR; C3b biotinylated at the thioester sulfhydryl, immobilised on SA sensor chip (950-1050 RU); analytes injected 2 min at 30 µl/min; 25°C; PBS, 0.05% Tween20, 1 mM MgCl2; 1:1 steady-state model; Biacore X100. (Surface plasmon resonance follows binding to a sensor surface in real time, without labels.)

Experiment [2] deals with C3b purified from plasma of donor D1 by the novel direct method (human) (UniProt P01024). The experiment is described as above.
For experiment [3], the target named is C3b purified from plasma of donor D2 by the novel direct method (human) (UniProt P01024). The description is as above.
For experiment [4], the target named is C3b purified from plasma of donor D3 by the novel direct method (human) (UniProt P01024). The experiment is described as above.
Experiment [5] deals with C3b (commercial), Complement Technology (human) (UniProt P01024). Put plainly: SPR; on-chip convertase assay: 600 nM FB and 100 nM FD injected 3 min over biotinylated C3b on SA chip, 10 min dissociation; 25°C; PBS, 0.05% Tween20, 1 mM MgCl2; exponential decay fit of 200-780 s; mean of three curves; 'estimated'.
Experiment [6] has as its target C3b purified from plasma of donor D1 by the novel direct method (human) (UniProt P01024). The experiment is described as above.
For experiment [7], the target named is C3b purified from plasma of donor D2 by the novel direct method (human) (UniProt P01024). The description is as above.
The target of experiment [8] is C3b purified from plasma of donor D3 by the novel direct method (human) (UniProt P01024). Described as above.

For “complement receptor 1 (CR1) complement control protein (CCP) domains 15-17 (domain or fragment)”, the Kd (usually the equilibrium constant for the complex coming apart) in experiment [1] was found to be 476 nM; in experiment [2] it was 485 nM; in experiment [3], 650 nM; in experiment [4], 438 nM.

On to “complement Factor H CCPs 19-20 (domain or fragment)”, for which the Kd in experiment [1] amounted to 9300 nM; in experiment [2], 10500 nM; in experiment [3], 10400 nM; in experiment [4], 10600 nM.

As to “Bb fragment of Factor B in the alternative pathway convertase C3bBb (from UniProt P00751 260-764) (domain or fragment)”, the koff (usually a measure of how fast the partners let go of each other) is 0.0019 s⁻¹ in experiment [5], 0.002 s⁻¹ in experiment [6], 0.002 s⁻¹ in experiment [7] and 0.0019 s⁻¹ in experiment [8].

For the substance “variable domain of the complement receptor of the immunoglobulin superfamily (domain or fragment)”, the Kd in experiment [1] came out at 754 nM; in experiment [2], 860 nM; in experiment [3] it was 944 nM; in experiment [4] it was 795 nM.
